Reference: patent US20260176701A1 (BRIGHAM AND WOMEN S HOSPITAL, published 2026)

B1: 61A11 (antibody, V domains shown)
VH: QSVEESGGRLVTPGTPLTLTCTVSGIDLSSYVMGWVRQAPGKGLDWIGMIDTHDDTYFAPWARGRFTISRTSSTTVDLKVASTTTEDTATYFCAGNLALWGRGTLVTVSS
VL: AQVLTQTPSPVSVAVGGTVTISCQSSQSVSSDNWLGWYQQKPGQPPKLLIYRASKLASGVSSRFKGSGSGTQFILTISDLECDDAATYYCAGGYSGSIIAFGGGTEVVVK
notes: Rabbit monoclonal antibody; also called 61A11-1
B2: 62H12 (antibody, V domains shown)
VH: QSVKESGGRLVTPGTPLTLICTVSGFSLSRYAVGWVRQAPGKGLEWIGYIWSGGYTDYANWAKGRFTISKTSTTVDLKITSPTTEDTATYFCAREGDSDDYIYLNLWGPGTLVTVSS
VL: ALVMTQTPSSVSAAVGGTVTINCQASESISSYLAWYQQKSGQPPKLLIYRASTLASGVPSRFKGSGSGTEFTLTIGDLECADAATYYCQQGYTSFNVDKAFGGGTEVVVK
notes: Rabbit monoclonal antibody (GenScript MonoRab); also called 62H12-1; 62H2
B3: MT1032 (bispecific antibody)
nanobody concatemer: QVQLVESGGDLVQAGGSLRLSCAVSGGTSSNYGMGWFRQAPGKEREFVSSISWSGSRTLYSDSVKGRFTISRDNAKNTVDLQMNSLKPEDTAVYYCTAVREYRDYPQRDNFDYWGQGTQVTVSGGGGSGGGGSGGGGSGGGGSMAQVQLVESGGDLVQAGGSLRLSCAVSGGTSSNYGMGWFRQAPGKEREFVSSISWSGSRTLYSDSVKGRFTISRDNAKNTVDLQMNSLKPEDTAVYYCTAVREYRDYPQRDNFDYWGQGTQVTVSCGSGRCGSGRCGSGRCGSGRC
modifications: biotinylated on the C-terminal cysteine residues when used as detector
notes: also called Nb5-Nb5-7Cys anti-ORF1 Nb dimer 7 (short linker); Nb 5-5-cys (short)
B4: MT1035 (bispecific antibody)
nanobody concatemer: QVQLVESGGDLVQAGGSLRLSCAVSGGTSSNYGMGWFRQAPGKEREFVSSISWSGSRTLYSDSVKGRFTISRDNAKNTVDLQMNSLKPEDTAVYYCTAVREYRDYPQRDNFDYWGQGTQVTVSGGGGSGGGGSGGGGSGGGGSDAAARDAAARDAAARGGGGSGGGGSGGGGSGGGGSMAQVQLVESGGDLVQAGGSLRLSCAVSGGTSSNYGMGWFRQAPGKEREFVSSISWSGSRTLYSDSVKGRFTISRDNAKNTVDLQMNSLKPEDTAVYYCTAVREYRDYPQRDNFDYWGQGTQVTVSCGSGRCGSGRCGSGRCGSGRC
modifications: biotinylated on the C-terminal cysteine residues when used as detector
notes: also called Nb5-Nb5-7Cys anti-ORF1 Nb dimer 10 (long linker v2); 5-5-cys(long2)
B5: MT1036 (other)
nanobody concatemer: DVQLVESGGGLVQAGGSLRLSCAASGRTDDIYTMGWFRQGPGKEREFVAVISWSITRRSSITHYADSVKGRFTISGENAENTVYLQMNTLKPEDTAVYYCAAKTGYSGSMSSYQDYDSWGQGTQVTVSGGGGSGGGGSGGGGSGGGGSDAAARDAAARDAAARGGGGSGGGGSGGGGSGGGGSGSMAQVHLVESGGKLVQAGESLKLSCEVSGRTFSISGAGWFRQAPGKEREFVAAITWTGGYPYYDASVKGRFTISREDPDNTVYLSMNSLKPEDTAVYYCATRRAGDLDFSYAQQGRYDNWGQGTQVTVSCGSGRCGSGRCGSGRCGSGRC
modifications: biotinylated on the C-terminal cysteine residues when used as detector
notes: also called Nb2-Nb9-7Cys anti-ORF1 Nb dimer 11 (long linker v2); 2-9-cys(long2)
B6: MT1037 (bispecific antibody)
nanobody concatemer: QVQLVESGGDLVQAGGSLRLSCAVSGGTSSNYGMGWFRQAPGKEREFVSSISWSGSRTLYSDSVKGRFTISRDNAKNTVDLQMNSLKPEDTAVYYCTAVREYRDYPQRDNFDYWGQGTQVTVSGGGGSGGGGSGGGGSGGGGSDAAARDAAARDAAARGGGGSGGGGSGGGGSGGGGSGSMAQVHLVESGGKLVQAGESLKLSCEVSGRTFSISGAGWFRQAPGKEREFVAAITWTGGYPYYDASVKGRFTISREDPDNTVYLSMNSLKPEDTAVYYCATRRAGDLDFSYAQQGRYDNWGQGTQVTVSCGSGRCGSGRCGSGRCGSGRC
modifications: biotinylated on the C-terminal cysteine residues when used as detector
notes: also called Nb5-Nb9-7Cys anti-ORF1 Nb dimer 12 (long linker v2); 5-9-cys(long2)
B7: MT1038 (other)
nanobody concatemer: QVHLVESGGKLVQAGESLKLSCEVSGRTFSISGAGWFRQAPGKEREFVAAITWTGGYPYYDASVKGRFTISREDPDNTVYLSMNSLKPEDTAVYYCATRRAGDLDFSYAQQGRYDNWGQGTQVTVSGGGGSGGGGSGGGGSGGGGSDAAARDAAARDAAARGGGGSGGGGSGGGGSGGGGSGSMAQVHLVESGGKLVQAGESLKLSCEVSGRTFSISGAGWFRQAPGKEREFVAAITWTGGYPYYDASVKGRFTISREDPDNTVYLSMNSLKPEDTAVYYCATRRAGDLDFSYAQQGRYDNWGQGTQVTVSCGSGRCGSGRCGSGRCGSGRC
modifications: biotinylated on the C-terminal cysteine residues when used as detector
notes: also called Nb9-Nb9-7Cys anti-ORF1 Nb dimer 13 (long linker v2); 9-9-cys(long2)
B8: anti-ORF1 Nanobody 1 (Nb1) (VHH)
VHH: DVQLVESGGGLVQAGESLRLSCAASGRTLSSLNMAWFRQVPGKERDFVSLISRSGSTDYVHSVRGRFTISRDNAKNTVYLEMNSLKPEDTAVYYCAADDNYNGRYPFRDEYEYWGQGTQVTVSH
notes: Llama nanobody
B9: 50E9 (antibody, V domains shown)
VH: QSVEESGGRLVTPGTPLTLTCTVSGFSLSRHYMSWVRQAPGKGLEWIGIIYDDDNRDHASWAKGRFTISRTSTTVDLKITSPTTEDTATYFCARVYASYGYALNLWGQGTLVIVSS
VL: ALVMTQTPPSVSAAVGGTVTINCQASESITNWLAWYQQKPGQPPKLLIYDASKLASGVSSRFSGSGSGTQFTLTISRVQCDDAATYYCQQGYTWNNIDNVFGGGTEVVVK
notes: Rabbit monoclonal antibody; also called 50E9-2

Experiments:
[1] = target: T1, recombinant human ORF1p (LINE-1 open reading frame 1 protein, L1RP) (human, UniProt Q9UN81 1-338); assay: Simoa sandwich, recombinant ORF1p at 40 pg/mL in diluent buffer, signal/background heat map; capture on the x axis, detector on the y axis
T1 construct: Expressed in E. coli, tag cleaved, monodisperse homotrimer; Immobilized on the CM5 chip in SPR; also called trimeric ORF1p
T1 sequence: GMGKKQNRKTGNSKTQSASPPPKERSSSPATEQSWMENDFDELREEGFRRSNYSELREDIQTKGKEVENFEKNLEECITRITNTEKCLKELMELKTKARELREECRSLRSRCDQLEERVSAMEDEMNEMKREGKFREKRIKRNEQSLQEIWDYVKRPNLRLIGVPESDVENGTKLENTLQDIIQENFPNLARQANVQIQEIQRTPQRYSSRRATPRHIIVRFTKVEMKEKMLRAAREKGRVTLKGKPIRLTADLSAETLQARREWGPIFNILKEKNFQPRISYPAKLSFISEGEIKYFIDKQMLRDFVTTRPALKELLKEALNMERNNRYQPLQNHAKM
Description: ORF1p Simoa assays. Simoa assays were performed on an HD-X Analyzer (Quanterix Corp.), with all assay reagents and consumables loaded onto the instrument according to the manufacturer's instructions. 250,000 capture beads and 250,000 helper (non-conjugated) beads were used in each Simoa assay. A three-step assay configuration was used for the first- and second-generation assays, consisting of a 15-minute target capture step (incubation of capture beads with 100 μL sample), 5-minute incubation with detector reagent (0.3 μg/mL for both first- and second-generation assays), and 5-minute incubation with streptavidin-β-galactosidase (150 pM for first-generation assay; 300 pM for second-generation assays). The beads were washed with System Wash Buffer 1 (Quanterix Corp.) after each assay step. Upon the final wash cycle, the beads were loaded together with the fluorogenic enzyme substrate resorufin β-D-galactopyranoside into a 216,000-microwell array, which was subsequently sealed with oil. Automated imaging and counting of “on” and “off” wells and calculation of average enzyme per bead (AEB) were performed by the instrument. Calibration curves were fit using a 4PL fit with a 1/y² weighting factor, and the limit of detection (LOD) was determined as three standard deviations above the blank.
Signal/background was also determined for a number of the pairs by Simoa using recombinant ORF1p protein in diluent buffer; the results are shown in FIG. 15. When the rabbit monoclonal antibodies were used as capture and detector, the background was high. The best combinations were the rabbit monoclonal antibodies as capture/Ab6 detector; Nb5-5 capture/rabbit monoclonal antibodies detector; and 4H1 capture/rabbit monoclonal antibody detector pairs.

[2] = target: T1, recombinant human ORF1p (LINE-1 open …); assay: Simoa sandwich calibration curves, panels titled capture/detector; AEB against recombinant ORF1p (axis 0.001-1000 pg/mL, log-log); dotted line = limit of detection
[3] = target: T1, recombinant human ORF1p (LINE-1 open …); assay: screen of cloned llama nanobody candidates for binding to ORF1p
[4] = target: T1, recombinant human ORF1p (LINE-1 open …); assay: ELISA screen of conditioned medium, then modified Simoa with Nb-5 or 4H1 beads and ORF1p
Source text: GenScript's MonoRab™ immunization and B cell cloning platform was used with purified, recombinant human ORF1p trimers. The 50 best-performing clones, determined by ELISA screening of the conditioned cell medium at multiple dilutions, were selected and used in a modified Simoa assay with two different detector beads (Nb-5, which is the C5 nanobody clone described above, or 4H1 (Sigma-Aldrich)). The ten best clones (62H12, 64C6, 33A8, 61A11, 36D12, 34H7, 50E9, 34C5, 55A6, and 42D10) all yielded up to 5-fold higher signal-to-noise than our best existing reagent, Ab6, (FIG. 13A).

Row | Binder | binding result [2] | other results
1 | B1 | – | binding result [1]: binds
2 | B2 | – | binding result [1]: binds
3 | B3 | binds | –
4 | B4 | binds | –
5 | B5 | binds | –
6 | B6 | binds | –
7 | B7 | binds | –
8 | B8 | – | binding result [3]: binds
9 | B9 | – | binding result [4]: binds
